The term Kd denotes the constant that tells how readily two partners part at equilibrium. By EC50 (read off the curve) is commonly meant the concentration giving half of the maximal effect. Read a low EC50 (read off the curve) as greater potency.

The results in this text go back to patent US20210139542A1.

Assay [1] deals with HEWL-Full12 (hen) (UniProt P00698). Nature of the assay: BLI, mAb on AHC biosensor, 100 nM antigen, footnote e bounds the value. A general note: In BLI a coated tip is dipped into the sample, and binding shifts an interference pattern.
Chain of UniProt P00698 (P00698 19-147 limits assumed): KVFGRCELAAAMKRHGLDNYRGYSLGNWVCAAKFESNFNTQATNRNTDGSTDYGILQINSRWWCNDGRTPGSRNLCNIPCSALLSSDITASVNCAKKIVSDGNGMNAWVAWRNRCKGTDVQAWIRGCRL
The target of assay [2] is HEWL-Full24 (hen) (UniProt P00698). The assay is described as above.
In assay [3] the target is HEWL-Hel-1024 (hen) (UniProt P00698). Nature of the assay: BLI, mAb on AHC biosensor, 100 nM antigen.
For assay [4], the target named is Hen Egg White Lysozyme (HEWL), wild type (hen) (UniProt P00698). Nature of the assay: BLI, mAb on AHC biosensor, 100 nM antigen.
Assay [5] concerns the target HEWL-Hel-104 (hen) (UniProt P00698). Nature of the assay: BLI, mAb on AHC biosensor, 100 nM antigen, footnote c bounds the value.
For assay [6], the target named is HEWL-Hel-1024 (hen) (UniProt P00698). The assay is described as above.
Assay [7] deals with HEWL-Hel-1012 (hen) (UniProt P00698). The description is as above.
The target of assay [8] is HEWL-Full12 (hen) (UniProt P00698). The assay is described as above.
Assay [9] has as its target HEWL-Full24 (hen) (UniProt P00698). Described as above.
The target of assay [10] is HEWL-Hel-102 (hen) (UniProt P00698). The description is as above.
For assay [11], the target named is HEWL-Hel-104 (hen) (UniProt P00698). Nature of the assay: BLI, mAb on AHC biosensor, 100 nM antigen.
The target of assay [12] is HEWL-Hel-1012 (hen) (UniProt P00698). Nature of the assay: BLI, mAb on AHC biosensor, 100 nM antigen.
Assay [13] deals with HEWL-Hel-102 (hen) (UniProt P00698). Nature of the assay: BLI, mAb on AHC biosensor, 100 nM antigen.
The target of assay [14] is Hen Egg White Lysozyme (HEWL), wild type (hen) (UniProt P00698). Nature of the assay: ELISA, HEWL derivative coated, antibody in tenfold dilutions, A450. On the technique in general: An ELISA detects its analyte on a solid surface through an enzyme-linked reagent.

Take D1.3 (antibody): the Kd was determined as 27 nM with HEWL-Full12 (hen) [1], 11 nM with HEWL-Full24 (hen) [2], 11 nM in the assay with HEWL-Hel-1024 (hen) [3] and 0.58 nM in assay [4].

For HyHEL-5 (antibody), the Kd in [4] worked out at 0.018 nM; in the assay with HEWL-Hel-104 (hen) [5], 0.14 nM; in the assay with HEWL-Hel-1024 (hen) [6] it was 0.2 nM; in the assay with HEWL-Hel-1012 (hen) [7], 0.11 nM; with HEWL-Full12 (hen) [8], 0.36 nM; with HEWL-Full24 (hen) [9], 0.17 nM. In the assay with HEWL-Hel-102 (hen) [10], this substance returned an equilibrium dissociation constant (Kd) of 0.12 nM.

HyHEL-10 (antibody): the Kd in the assay with HEWL-Hel-104 (hen) [11] turned out to be 0.091 nM; with HEWL-Hel-1024 (hen) [3], 0.26 nM; with HEWL-Hel-1012 (hen) [12], 0.055 nM; with HEWL-Hel-102 (hen) [13] it was 0.068 nM.

The substance D11.15 (antibody) gave a concentration giving a half-maximal response (EC50 (read off the curve)) in assay [14] of 0.5 nM. The substance further returned a Kd in [4] of 2.3 nM.
